Assay [1] has as its target T1, CD33 naturally expressed on HL60 cells (human, UniProt P20138 18-364). The assay can be described thus: FACS. In general terms: A flow cytometer gives signals particle by particle.
Assay [2] addresses T1, CD33 naturally expressed on HL60 cells. Put plainly: FACS. This is another data set of the same source.

Changes are numbered by the printed parent chain. Names may count otherwise. Like-named read-outs stand apart in the source and are kept apart here.

T1 sequence (P20138 18-364): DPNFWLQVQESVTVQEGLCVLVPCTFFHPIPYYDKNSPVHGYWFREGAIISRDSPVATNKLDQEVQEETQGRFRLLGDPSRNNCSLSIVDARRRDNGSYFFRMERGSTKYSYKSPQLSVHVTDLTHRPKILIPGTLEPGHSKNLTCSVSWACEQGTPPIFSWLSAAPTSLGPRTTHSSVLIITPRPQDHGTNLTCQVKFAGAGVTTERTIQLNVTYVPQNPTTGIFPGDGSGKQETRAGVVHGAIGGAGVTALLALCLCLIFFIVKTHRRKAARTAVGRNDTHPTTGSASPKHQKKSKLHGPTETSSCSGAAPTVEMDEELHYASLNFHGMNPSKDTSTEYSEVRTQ

B1: QP42824285 (antibody)
chain 1: MEFGLSWLFLVAILKGVQCQVQLVQSGAEVKKPGESVKVSCKASGYTFTNYGMNWVKQAPGQGLEWMGWINTYTGEPTYADKFQGRVTMTTDTSTSTAYMEIRNLGGDDTAVYYCARWSWSDGYYVYFDYWGQGTSVTVSSGGGSGGGGSYVLTQPSSVSVAPGQTATISCGGHNIGSKNVHWYQQRPGQSPVLVIYQDNKRPSGIPERFSGSNSGNTATLTISGTQAMDEADYYCQVWDNYSVLFGGGTKLTVLGGGGSGGGGSGGGGSRTVAAPSVFIFPPSDEQLKSGTASVVCLLNNFYPREAKVQWKVDNALQSGNSQESVTEQDSKDSTYSLSSTLTLSKADYEKHKVYACEVTHQGLSSPVTKSFNRGEC
chain 2: MEFGLSWLFLVAILKGVQCQVQLVQSGAEVKKPGESLKVSCKASGYTFTSYYMHWVRQAPGQGLEWMGIINPSGGSTSYAQKFQGRVTMTRDTSTSTVYMELSSLRSEDTAVYYCARGSAYYYDFADYWGQGTLVTVSSGGGSGGGGDIVMTQSPDSLTVSLGERTTINCKSSQSVLDSSTNKNSLAWYQQKPGQPPKLLLSWASTRESGIPDRFSGSGSGTDFTLTIDSPQPEDSATYYCQQSAHFPITFGQGTRLEIKGGGGSGGGGSGGGGSASTKGPSVFPLAPSSKSTSGGTAALGCLVKDYFPEPVTVSWNSGALTSGVHTFPAVLQSSGLYSLSSVVTVPSSSLGTQTYICNVNHKPSNTKVDKKVEPKSCDKTHTCPPCPAPEAAGGPSVFLFPPKPKDTLMISRTPEVTCVVVDVSHEDPEVKFNWYVDGVEVHNAKTKPREEQYNSTYRVVSVLTVLHQDWLNGKEYKCKVSNKALPAPIEKTISKAKGQPREPQVYTLPPSREEMTKNQVSLSCAVKGFYPSDIAVEWESNGQPENNYKTTPPVLDSDGSFFLVSKLTVDKSRWQQGNVFSCSVMHEALHNRYTQKSLSLSPGKGGSHHHHHH
chain 3: not shown
chain 4: not shown
Broadly, the EC50 is the concentration giving half of the maximal effect. For the molecule B1, the midpoint of the response in assay [1], the EC50, lay at 2.31 nM.

B2: CD33/CD16A/IL-15 trifunctional fusion protein QP43394340 (FC with L234A/L235A mutation for eliminating function) (bispecific antibody)
chain 1: not shown
chain 2: not shown
light: DIVMTQSPDSLTVSLGERTTINCKSSQSVLDSSTNKNSLAWYQQKPGQPPKLLLSWASTRESGIPDRFSGSGSGTDFTLTIDSPQPEDSATYYCQQSAHFPITFGQGTRLEIKRTVAAPSVFIFPPSDEQLKSGTASVVCLLNNFYPREAKVQWKVDNALQSGNSQESVTEQDSKDSTYSLSSTLTLSKADYEKHKVYACEVTHQGLSSPVTKSFNRGEC
heavy: QVQLVQSGAEVKKPGESVKVSCKASGYTFTNYGMNWVKQAPGQGLEWMGWINTYTGEPTYADKFQGRVTMTTDTSTSTAYMEIRNLGGDDTAVYYCARWSWSDGYYVYFDYWGQGTSVTVSSASTKGPSVFPLAPSSKSTSGGTAALGCLVKDYFPEPVTVSWNSGALTSGVHTFPAVLQSSGLYSLSSVVTVPSSSLGTQTYICNVNHKPSNTKVDKKVEPKSCDKTHTCPPCPAPEAAGGPSVFLFPPKPKDTLMISRTPEVTCVVVDVSHEDPEVKFNWYVDGVEVHNAKTKPREEQYNSTYRVVSVLTVLHQDWLNGKEYKCKVSNKALPAPIEKTISKAKGQPREPQVYTLPPSREEMTKNQVSLSCAVKGFYPSDIAVEWESNGQPENNYKTTPPVLDSDGSFFLVSKLTVDKSRWQQGNVFSCSVMHEALHNRYTQKSLSLSPGK
The molecule B2 came in with an EC50 in assay [2] of 13.4 nM.

B3: CD33/CD16A bispecific antibody QP4115777778 (FC wild-type) (bispecific antibody)
chain: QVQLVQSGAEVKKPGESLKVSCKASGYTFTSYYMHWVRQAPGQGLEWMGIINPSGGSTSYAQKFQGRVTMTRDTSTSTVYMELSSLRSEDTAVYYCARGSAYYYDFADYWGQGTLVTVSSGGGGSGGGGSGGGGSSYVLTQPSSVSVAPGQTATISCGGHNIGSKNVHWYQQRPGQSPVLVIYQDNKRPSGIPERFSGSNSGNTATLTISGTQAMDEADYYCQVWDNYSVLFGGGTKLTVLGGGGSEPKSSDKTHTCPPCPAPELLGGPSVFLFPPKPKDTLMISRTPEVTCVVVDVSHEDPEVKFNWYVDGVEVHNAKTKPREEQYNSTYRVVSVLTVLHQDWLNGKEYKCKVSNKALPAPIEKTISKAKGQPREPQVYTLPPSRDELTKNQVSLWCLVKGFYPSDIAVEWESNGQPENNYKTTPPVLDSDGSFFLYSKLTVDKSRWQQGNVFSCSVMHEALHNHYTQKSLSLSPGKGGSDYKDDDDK
heavy: QVQLVQSGAEVKKPGESVKVSCKASGYTFTNYGMNWVKQAPGQGLEWMGWINTYTGEPTYADKFQGRVTMTTDTSTSTAYMEIRNLGGDDTAVYYCARWSWSDGYYVYFDYWGQGTSVTVSSASTKGPSVFPLAPSSKSTSGGTAALGCLVKDYFPEPVTVSWNSGALTSGVHTFPAVLQSSGLYSLSSVVTVPSSSLGTQTYICNVNHKPSNTKVDKKVEPKSCDKTHTCPPCPAPELLGGPSVFLFPPKPKDTLMISRTPEVTCVVVDVSHEDPEVKFNWYVDGVEVHNAKTKPREEQYNSTYRVVSVLTVLHQDWLNGKEYKCKVSNKALPAPIEKTISKAKGQPREPQVYTLPPSREEMTKNQVSLSCAVKGFYPSDIAVEWESNGQPENNYKTTPPVLDSDGSFFLVSKLTVDKSRWQQGNVFSCSVMHEALHNRYTQKSLSLSPGKGGSHHHHHH
light: B2 light
Molecule B3 came in with a concentration for a half-maximal effect (EC50) in assay [2] of 9.63 nM.

B4: QP42664421 (antibody)
chain 1: B2 light
chain 2: B3 heavy with L239A, L240A
chain 3: MEFGLSWLFLVAILKGVQCITCPPPMSVEHADIWVKSYSLYSRERYICNSGFKRKAGTCSLTECVLNKATNVAHWTTPSLKCIRGGGSGGGGGGGGSSYVLTQPSSVSVAPGQTATISCGGHNIGSKNVHWYQQRPGQSPVLVIYQDNKRPSGIPERFSGSNSGNTATLTISGTQAMDEADYYCQVWDNYSVLFGGGTKLTVL
chain 4: not shown
In assay [1], B4 displayed an EC50 of 11.6 nM.

B5: CD33/CD16A/IL-15 trifunctional fusion protein QP743745 (FC wild-type) (bispecific antibody)
chain 1: not shown
chain 2: not shown
light: B2 light
heavy: B2 heavy with A239L, A240L
As for B5, the concentration for a half-maximal effect (EC50) in assay [2] worked out at 8.08 nM.

B6: QP42664415 (antibody)
chain 1: B2 light
chain 2: B3 heavy with L239A, L240A
chain 3: MEFGLSWLFLVAILKGVQCQVQLVQSGAEVKKPGESLKVSCKASGYTFTSYYMHWVRQAPGQGLEWMGIINPSGGSTSYAQKFQGRVTMTRDTSTSTVYMELSSLRSEDTAVYYCARGSAYYYDFADYWGQGTLVTVSSGGGGSGGGGSGGGGSITCPPPMSVEHADIWVKSYSLYSRERYICNSGFKRKAGTCSLTECVLNKATNVAHWTTPSLKCIR
chain 4: not shown
For B6, in assay [1], the EC50 amounted to 14.2 nM.

B7: QP42664400 (antibody)
chain 1: B2 light
chain 2: B3 heavy with L239A, L240A
chain 3: not shown
chain 4: not shown
For B7, the EC50 in assay [1] stood at 8.39 nM.

B8: QP42664269 (antibody)
chain 1: B2 light
chain 2: B3 heavy with L239A, L240A
chain 3: not shown
chain 4: not shown
The molecule B8 yielded an EC50 in assay [1] of 2.27 nM.

B9: QP42664406 (antibody)
chain 1: B2 light
chain 2: B3 heavy with L239A, L240A
chain 3: not shown
chain 4: not shown
In turn, B9 gave an EC50 in assay [1] of 11.3 nM.

B10: QP42664412 (antibody)
chain 1: B2 light
chain 2: B3 heavy with L239A, L240A
chain 3: MEFGLSWLFLVAILKGVQCSYVLTQPSSVSVAPGQTATISCGGHNIGSKNVHWYQQRPGQSPVLVIYQDNKRPSGIPERFSGSNSGNTATLTISGTQAMDEADYYCQVWDNYSVLFGGGTKLTVLGGGGSGGGGSGGGGSITCPPPMSVEHADIWVKSYSLYSRERYICNSGFKRKAGTCSLTECVLNKATNVAHWTTPSLKCIR
chain 4: not shown
Molecule B10 displayed an EC50 in assay [1] of 12 nM.

B11: QP42884285 (antibody)
chain 1: DIVMTQSPDSLTVSLGERTTINCKSSQSVLDSSTNKNSLAWYQQKPGQPPKLLLSWASTRESGIPDRFSGSGSGTDFTLTIDSPQPEDSATYYCQQSAHFPITFGQGTRLEIKTVAAPSVFIFPPSYVLTQPSSVSVAPGQTATISCGGHNIGSKNVHWYQQRPGQSPVLVIYQDNKRPSGIPERFSGSNSGNTATLTISGTQAMDEADYYCQVWDNYSVLFGGGTKLTVLRTVAAPSVFIFPPSDEQLKSGTASVVCLLNNFYPREAKVQWKVDNALQSGNSQESVTEQDSKDSTYSLSSTLTLSKADYEKHKVYACEVTHQGLSSPVTKSFNRGEC
chain 2: QVQLVQSGAEVKKPGESVKVSCKASGYTFTNYGMNWVKQAPGQGLEWMGWINTYTGEPTYADKFQGRVTMTTDTSTSTAYMEIRNLGGDDTAVYYCARWSWSDGYYVYFDYWGQGTSVTVSSASTKGPQVQLVQSGAEVKKPGESLKVSCKASGYTFTSYYMHWVRQAPGQGLEWMGIINPSGGSTSYAQKFQGRVTMTRDTSTSTVYMELSSLRSEDTAVYYCARGSAYYYDFADYWGQGTLVTVSSASTKGPSVFPLAPSSKSTSGGTAALGCLVKDYFPEPVTVSWNSGALTSGVHTFPAVLQSSGLYSLSSVVTVPSSSLGTQTYICNVNHKPSNTKVDKKVEPKSCDKTHTCPPCPAPEAAGGPSVFLFPPKPKDTLMISRTPEVTCVVVDVSHEDPEVKFNWYVDGVEVHNAKTKPREEQYNSTYRVVSVLTVLHQDWLNGKEYKCKVSNKALPAPIEKTISKAKGQPREPQVYTLPPSREEMTKNQVSLSCAVKGFYPSDIAVEWESNGQPENNYKTTPPVLDSDGSFFLVSKLTVDKSRWQQGNVFSCSVMHEALHNRYTQKSLSLSPGKGGSHHHHHH
chain 3: not shown
chain 4: not shown
The molecule B11 came in with an EC50 in assay [1] of 1.97 nM.
